Source: article PMC4198471 (Biochimica et biophysica acta, 2014)

Biological target: T1, Trx-RhopH3-C (P. falciparum RhopH3 amino acids 620-897 with Trx and His tags) (Plasmodium falciparum, UniProt Q8I395 620-897)
T1 sequence: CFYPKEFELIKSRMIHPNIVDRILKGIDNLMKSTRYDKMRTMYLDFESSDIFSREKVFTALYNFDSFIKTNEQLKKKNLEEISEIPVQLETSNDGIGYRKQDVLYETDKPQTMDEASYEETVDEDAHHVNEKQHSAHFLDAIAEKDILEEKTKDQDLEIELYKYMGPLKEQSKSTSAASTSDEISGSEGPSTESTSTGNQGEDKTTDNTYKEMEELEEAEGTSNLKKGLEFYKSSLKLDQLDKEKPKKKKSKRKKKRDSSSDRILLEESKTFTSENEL
Test: ELISA

B1: GST-5ABC (5ABC region of human erythrocyte band 3, amino acids 720-761, as GST fusion protein) (domain or fragment, UniProt P02730 720-761, looked up)
chain: GMPWLSATTVRSVTHANALTVMGKASTPGAAAQIQEVKEQRI
In the case of B1, the Kd is reported as 183 ± 0.111 nM.
